According to patent US20150374663A1 (UNIVERSITY OF ROCHESTER, published 2015):
Values belong to the binder of their own block, whether it stands above or below them. Ends that are not written are not given here.

Assays:
[1] = biological target: T1, type V tartrate-resistant acid phosphatase (TRAP) protein, immobilised on CM5 sensor chip; assay: SPR, TRAP amine-coupled to CM5 chip, initial rate analysis of sensorgrams
Method: Surface plasmon resonance (SPR) is used to assess the affinity of peptide-functionalized polymers for TRAP. Series S Sensor CM5 Chips are functionalized with TRAP via 1-ethyl-3-(3-dimethylaminopropyl) carbodiimide (EDC)/N-hydroxysuccinimide (NHS) chemistry. Briefly, the chips, which have a carboxymethylated dextran functionality, are activated through the introduction of NHS and EDC. After activation, TRAP protein, at 30 μg/mL in sodium acetate (pH=5), is introduced to the surface. Ethanolamine-hydrochloric acid is used to quench unreacted carboxysuccinimide groups. Polymers are dissolved in running buffer of PBS with 0.005% Tween20. Polymers are analyzed in duplicate at different concentrations. Surface regeneration is achieved using 1-10 mM NaOH solutions as necessary. […] Sensorgram data (FIG. 22) are exported from the SPR evaluation software after smoothing data of injection events and analyzed. Response units (RU) are converted into concentrations for rate analysis using the equation:
Where S is the concentration of polymer bound to the TRAP-functionalized surface and MW is the molecular weight of the polymer. The binding rates of polymers to TRAP are determined in the initial linear portion of association, within two seconds of the start of injection. […]

[2] = biological target: T2, TRAP deposited by osteoclasts on human cortical bone wafers (human, UniProt P13686 22-325, limits assumed); assay: confocal imaging of fluorescently labeled peptide incubated overnight on human cortical bone wafers
T2 construct: The protein is native TRAP deposited on bone, not purified; also called bone wafers decorated with TRAP; resorption pits
T2 sequence (looked up): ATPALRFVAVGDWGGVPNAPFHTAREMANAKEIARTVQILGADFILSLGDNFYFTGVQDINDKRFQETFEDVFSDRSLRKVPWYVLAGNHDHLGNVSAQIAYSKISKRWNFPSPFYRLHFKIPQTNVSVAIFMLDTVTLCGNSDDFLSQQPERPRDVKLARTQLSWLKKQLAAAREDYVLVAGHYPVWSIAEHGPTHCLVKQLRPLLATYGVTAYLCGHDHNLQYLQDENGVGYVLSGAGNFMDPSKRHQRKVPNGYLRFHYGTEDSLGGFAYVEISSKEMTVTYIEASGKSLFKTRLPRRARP
Method: Equal concentrations of fluorescently labeled TBP and SCP are prepared in 1× phosphate-buffered saline (PBS). Bone wafers are cut from cortical bone obtained from the femur of a human donor cadaver and incubated in peptide solutions overnight, washed twice with 1×PBS, and then visualized via confocal imaging. Stacked sections are compressed into 2D images to allow for qualitative analysis as in FIG. 3A through FIG. 3D.

[3] = biological target: T1, type V tartrate-resistant acid …; assay: SPR, TRAP amine-coupled to CM5 chip, steady-state response vs concentration fit
Method: Surface plasmon resonance (SPR) is used to assess the affinity of peptides for TRAP. Series S Sensor CM5 Chips are functionalized with TRAP via 1-ethyl-3-(3-dimethylaminopropyl) carbodiimide (EDC)/N-hydroxysuccinimide (NHS) chemistry. Briefly, the chips, which have a carboxymethylated dextran functionality, are activated through the introduction of NHS and EDC. After activation, TRAP protein, at 30 μg/mL in sodium acetate (pH=5), is introduced to the surface. Ethanolamine-hydrochloric acid is used to quench unreacted carboxysuccinimide groups. Peptides are dissolved in running buffer of PBS with 0.005% Tween20. Peptides are analyzed in duplicate at different concentrations. Surface regeneration is achieved using a combination of 1 and 2 M NaCl and 1-50 mM NaOH solutions as necessary.
Target affinity can be determined by introducing increasing concentrations of the ligand to the surface. […] The binding response was measured and plotted against concentration (FIG. 4), allowing for a fitting of the data by a binding curve. From this fitting, values such as KD can be determined.

[4] = biological target: T1, type V tartrate-resistant acid …; assay: SPR, TRAP-functionalized surface, binding curve fit (n = 2, Ave. ± StDev)
[5] = biological target: T1, type V tartrate-resistant acid …; assay: SPR, TRAP-functionalized surface, binding curve fit
Method: Quantitative analyses of peptide and polymer affinities were performed using SPR. […] The binding of any molecules to the surface of the sensor chips results in a change in the angle of incident light reflection, allowing highly-sensitive detection of miniscule amounts of ligand binding to the surface. Target affinity can be determined by introduction of increasing concentrations of the molecule to the surface (FIG. 38A and FIG. 38B). […] The binding response is measured and plotted against concentration, allowing for a fitting of the data by a binding curve. From this fitting, values such as the dissociation constant (KD) value can be determined. Through this technique, the affinity of peptides and peptide-functionalized polymers were analyzed.

Kd [1]: 60 µM
B1: 10% TBP-functionalized PEG polymer (pTBP) of Table 4, M:CTA:I 300:1:0.1, Mn 40.1 kDa (other)
peptide: TPLSYLKGLVTVG-OH
modifications: not fully specified (N-terminus); also: copolymerized by RAFT with PEG methyl ether methacrylate (300 Da), ~9 peptides per chain, fluorescently labelled for bone-targeting studies, position not given here
notes: Random copolymer; Footnote e says it was used for the in vitro and in vivo bone-targeting studies, where it was fluorescently labeled; also called 10% TBP-functionalized polymer

binding result [2]: no binding
B2: scrambled control peptide (SCP), VPVGTLSYLKLTG (peptide)
peptide: VPVGTLSYLKLTG-OH
modifications: not fully specified; also: fluorescent cadaverine label in bone wafer experiment, position not given here
notes: In the bone wafer experiment it carried a fluorescent cadaverine label; also called scrambled peptide

Kd [3]: ~200 µM
Kd [4]: 795 µM
Kd [5]: ~700 µM
B3: TRAP-binding peptide (TBP), TPLSYLKGLVTVG (peptide)
peptide: TPLSYLKGLVTVG-OH
modifications: also: fluorescent cadaverine label in bone wafer experiment, position not given here
notes: also called TRAP peptide
